Here are results for 1 molecule from US20170327598A1 (published 2017).

For one experiment, the target named is STAT 3 protein (UniProt P40763 1-770, limits assumed). In words: sandwich ELISA, STAT protein coated at 0.5 µg/mL.
A further experiment addresses T1, STAT 5a protein (UniProt P42229 1-794, limits assumed).
T1 sequence (looked up): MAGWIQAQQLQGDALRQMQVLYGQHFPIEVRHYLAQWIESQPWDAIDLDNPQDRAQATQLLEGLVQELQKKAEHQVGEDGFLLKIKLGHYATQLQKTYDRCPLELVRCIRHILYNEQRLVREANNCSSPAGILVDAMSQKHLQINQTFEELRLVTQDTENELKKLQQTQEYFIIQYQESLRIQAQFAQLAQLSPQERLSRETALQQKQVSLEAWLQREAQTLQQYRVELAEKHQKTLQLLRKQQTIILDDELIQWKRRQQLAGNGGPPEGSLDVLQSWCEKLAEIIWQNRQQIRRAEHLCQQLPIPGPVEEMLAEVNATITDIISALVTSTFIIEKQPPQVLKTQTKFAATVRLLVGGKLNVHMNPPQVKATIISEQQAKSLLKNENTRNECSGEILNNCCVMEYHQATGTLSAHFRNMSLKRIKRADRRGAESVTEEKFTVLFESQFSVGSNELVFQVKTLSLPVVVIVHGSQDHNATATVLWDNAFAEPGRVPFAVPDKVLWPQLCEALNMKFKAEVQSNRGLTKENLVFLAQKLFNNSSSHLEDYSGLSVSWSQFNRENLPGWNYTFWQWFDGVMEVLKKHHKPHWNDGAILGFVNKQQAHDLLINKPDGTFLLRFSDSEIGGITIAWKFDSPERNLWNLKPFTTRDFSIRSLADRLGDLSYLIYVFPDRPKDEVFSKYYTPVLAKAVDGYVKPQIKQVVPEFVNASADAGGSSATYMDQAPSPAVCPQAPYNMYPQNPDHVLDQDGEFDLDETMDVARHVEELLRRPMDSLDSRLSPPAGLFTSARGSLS
In words: sandwich ELISA, STAT protein coated at 0.5 µg/mL. Background: In an ELISA, binding on a coated surface is turned into a signal by an enzyme label.

B1: anti-STAT3 VHH13 (SEQ ID NO:3) sdAb (VHH)
VHH: HVQLVESGGGSVQAGGSLRLSCAASGANGGRSCMGWFRQVPGKEREGVSGISTGGLITYYADSVKGRFTISQDNTKNTLYLQMNSLKPEDTAMYYCATSRFDCYRGSWFNRYMYNSWGQGTQVTVSS
Take B1: the “Mean OD450” value came to 0.063 OD450 in the experiment with STAT 3 protein and 0.107 OD450 with STAT 5a protein.
